Data on three molecules can be found in article PMC4268158 (Nature, 2014).

Series [1] concerns the molecule itself. Put plainly: SEC + other: negative-stain EM.
Series [2] concerns the molecule itself. The series can be described thus: cryo-EM structure.
Series [3] concerns the molecule itself. Put plainly: SEC + other: negative-stain EM. This is another data set of the same source.
Series [4] concerns the target T1, CsgE-his (pNH27) (Escherichia coli), P0AE95.
T1 chain: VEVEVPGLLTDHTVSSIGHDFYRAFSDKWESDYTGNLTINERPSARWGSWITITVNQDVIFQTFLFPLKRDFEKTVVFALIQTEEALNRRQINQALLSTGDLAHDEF
Put plainly: SEC. The conditions noted are these: remark: other sources report otherwise.

Series [5] concerns the target T1, CsgE-his (pNH27) (Escherichia coli), …. The series can be described thus: cryo-EM class averages. The settings on record: remark: other sources report otherwise.
For series [6] the target is unchanged. The series can be described thus: negative-stain EM. The settings on record: remark: other sources report otherwise.
Series [7] shares this target. The series can be described thus: cryo-EM structure. The conditions noted are these: remark: other sources report otherwise.

“And” between values parts separate entries of the source, which are not always exact repeats. Identical values can stand only once.

B1: CsgGC1S, non-lipidated soluble periplasmic form, C-terminally StrepII-tagged (pPG2) (natural protein, Escherichia coli, UniProt P0AEA2 16-277, looked up)
chain: SLTAPPKEAARPTLMPRAQSYKDLTHLPAPTGKIFVSVYNIQDETGQFKPYPASNFSTAVPQSATAMLVTALKDSRWFIPLERQGLQNLLNERKIIRAAQENGTVAINNRIPLQSLTAANIMVEGSIIGYESNVKSGGVGARYFGIGADTQYQLDQIAVNLRVVNVSTGEILSSVNTSKTILSYEVQAGVFRFIDYQRLLEGEVGYTSNEPVMLCLMSAIETGVIFLINDGIDRGLWDLQNKAERQNDILVKYRHMSVPPES
The stoichiometry N is a count of units in the complex or per binding partner. In the case of B1, the “stoichiometry N” value in series [1] is 16 and 8.

B2: CsgG, native membrane-extracted, C-terminally StrepII-tagged (pPG1) (natural protein, Escherichia coli, UniProt P0AEA2 16-277, looked up)
chain: CLTAPPKEAARPTLMPRAQSYKDLTHLPAPTGKIFVSVYNIQDETGQFKPYPASNFSTAVPQSATAMLVTALKDSRWFIPLERQGLQNLLNERKIIRAAQENGTVAINNRIPLQSLTAANIMVEGSIIGYESNVKSGGVGARYFGIGADTQYQLDQIAVNLRVVNVSTGEILSSVNTSKTILSYEVQAGVFRFIDYQRLLEGEVGYTSNEPVMLCLMSAIETGVIFLINDGIDRGLWDLQNKAERQNDILVKYRHMSVPPES
modifications: diacylglycerol- and amide-linked acyl chain on the N-terminal Cys (lipid anchor)
Turning to B2, the “stoichiometry N” value in series [2] is 9; in series [3], 18.

B3: CsgE-his (pNH27), P0AE95 23-129 (natural protein)
chain: VEVEVPGLLTDHTVSSIGHDFYRAFSDKWESDYTGNLTINERPSARWGSWITITVNQDVIFQTFLFPLKRDFEKTVVFALIQTEEALNRRQINQALLSTGDLAHDEF
For the molecule B3, the stoichiometry N in series [4] amounted to 9.16; in series [5] it was 9; in series [6] it was 9; in series [7], 9.
